Experimental data reported in the DeepSol protein solubility set.

Experiment: soluble on expression in E. coli; label from the status in PepcDB or PDB records

Sequence	soluble on expression in E. coli
MMKAIPVEQAVGTVLCHDLTRIVPGEHKGRAFRKGHIVTEADIPLLLSIGKEHLYVLNLEAHQLHEDEAALRIATAAAGPGISLSEVSEGRINFMASPGLLCVDVEALNAINAIDEVALATMHSGQFIAARRAVAGTRVVPLVIDESKIRQVERICAASYPVVQVKPLRSHSIGVVTTGSEIFHGRIKDKFGPVMRDKFAALGSSVMGQRLVGDAPEATRDAILSFIGEGADMVVVTGGMSVDPDDQTPASIRATGAEVVTYGSPTFPGVMFMLAYLNDIPVLGLPGCVMYYRASIFDLVVPRLLAGERLARRDITSLGHGGFCAGCETCHHPVCPFGKLEHHHHHH	not soluble
MMKPVLHFSKLYEVKKLLRKSRLYTVCEESRCPNISECFGNKTATFMILGNRCTRRCAFCNVEKGFPKGVDPEEPYRLLEAVKTLGLKYVVITSVTRDDLPDGGASHFAKCIRVLKENIEDIKVEVLIPDFRGNKKALEVVLKEKPVVLNHNVETVPRLYPSVRIGANYKRSLNILKWSKEIDKSVYTKSALILGFGERKEEVIKVMEDLRSVDCDFLVLGQYYQPSLKHHPVVKYYSEEEFKEFEEIGYEMGFKFVVSKPNARSSYKAFESLLSTLEHHHHHH	not soluble
MMNDGKQQSTFLFHDYETFGTHPALDRPAQFAAIRTDSEFNVIGEPEVFYCKPADDYLPQPGAVLITGITPQEARAKGENEAAFAARIHSLFTVPKTCILGYNNVRFDDEVTRNIFYRNFYDPYAWSWQHDNSRWDLLDVMRACYALRPEGINWPENDDGLPSFRLEHLTKANGIEHSNAHDAMADVYATIAMAKLVKTRQPRLFDYLFTHRNKHKLMALIDVPQMKPLVHVSGMFGAWRGNTSWVAPLAWHPENRNAVIMVDLAGDISPLLELDSDTLRERLYTAKTDLGDNAAVPVKLVHINKCPVLAQANTLRPEDADRLGINRQHCLDNLKILRENPQVREKVVAIFAEAEPFTPSDNVDAQLYNGFFSDADRAAMKIVLETEPRNLPALDITFVDKRIEKLLFNYRARNFPGTLDYAEQQRWLEHRRQVFTPEFLQGYADELQMLVQQYADDKEKVALLKALWQYADEIVEHHHHHH	soluble
MMNVPEGFQPLFRSSPLLDLLGPFFCRQDAQRQLVVALRIDEKHCNHGGTAHGGLLSTLADVGLGYAMAFSREPPQPMVTVGLRLDFCGVARVGDWLEVHTRVDKLGQRMAFASARLHSGERLVASASGVFHLP	not soluble
MMPNVAPNSYYLNIPNANSTSTTTSSIFSDLNKEYESKIKEIEEYYIKTLLNENTDNDDSSSSEGHNINETDILSEYSPRPSPWLPSKPNCYHPLGDFKDLIISDSRPTNTLPINNPFAGNNNISTLATTEKKRKKRSLEVRVNPTYTTSAFSLPLTAENLQKLSQVDSQSTGLPYTLPIQKTTKLEPCRRAPLQLPQLVNKTLYKTELCESFTIKGYCKYGNKCQFAHGLNELKFKKKSNNYRTKPCINWSKLGYCPYGKRCCFKHGDDKDVEIYQNANDGRSKDTALTPLPTSLAPSNNDNITNLSKPRNLHTSVKALQRMTW	not soluble
MMQFEVKDLINKIKKDGLEEAERASNDIILKAKREAEEIVARAEEAARVLKAKSEKEANDYKCHALEASRQAIRDLIIGVEKNLKSLFENALKDNVTEVLSDNNFLAELIIKITDSWAKGEKLVIQLNESDFSSLEQILRLKLGNKLKEGMELRPFRGISKGFKIQKKNIGLHYDFSAETIADILFDYLNPRFKEVIKVV	not soluble
MMQPLYLVGPRGCGKTTIGMALAQATGFRFADTDRWLQSHVQMSVADIVEKEGWGGFRARETAALEAVSAPSTVVATGGGIILTEYNRRYMHRVGVVIYLCAPVSTLVNRLEAEPEADLRPTLTGKPLSEEVREVLEQRDALYRETAHYIIDATKAPAQVVSEIIAALPPSTQRLQGDVYT	not soluble
MMRGSHHHHHTDPISYIIRKADSVNKALDSAVPLREPLKIHEAMRYSLLAGGKRVRPVLCIAACELVGGEESLAMPAACAVEMIHTMSLIHDDLPCMDNDDLRRGKPTNHKVYGEDVAVLAGDALLSFAFEHLASATSSEVSPARVVRAVGELAKAIGTEGLVAGQVVDISSEGLDLNNVGLEHLKFIHLHKTAALLEASAVLGGIIGGGSDEEIERLRKFARCIGLLFQVVDDILDVTKSSKLTYPKLMGLEKSREFAEKLNTEARDQLLGFDSDKVAPLLALANYIANRQN	soluble
MMRTWQSKLHVTQHEVKLLVTCPEQGDVLKARLPPHARHPRALLTLLEGLSLYNGQPQRIALHVDERFRLTAGLFGDELWPGESPLVQYDVAHRARQCGRLSGIGDFRALRRGSP	not soluble
MMSGGYKSSGVGNDRSQRSVFVGNISYDVSEDTIRSIFSKAGNVLSIKMVHDRETGKPKGYGFIEFPDIQTAEVAIRNLNGYELSGRILRVDSAAGGMNMEEFGSSSNAPAPVEENPYGPECDAGKAPERISQTVASLAPEKMFELMKQLQESLKNNPSELHKFLVEHPQIAYAVLQAAVVMRIVDPQTALGLLHRNKAATLTPFHNTPQGAPPMVQQQQMPMPPKPTFAHPGPSMGPPMGPPMGPPMGHPQAPQYGQNYGQPVAPQQYKPPPQQQPPVQMRPPVQQPQQNHQEEQQNAELLMQVMQLSEHDLQMLPAGDREKIIELRQQLKRNVK	not soluble
MMSGQGKRLMVMAGGTGGHVFPGLAVAHHLMAQGWQVRWLGTADRMEADLVPKHGIEIDFIRISGLRGKGIKALIAAPLRIFNAWRQARAIMKAYKPDVVLGMGGYVSGPGGLAAWSLGIPVVLHEQNGIAGLTNKWLAKIATKVMQAFPGAFPNAEVVGNPVRTDVLALPLPQQRLAGREGPVRVLVVGGSQGARILNQTMPQVAAKLGDSVTIWHQSGKGSQQSVEQAYAEAGQPQHKVTEFIDDMAAAYAWADVVVCRSGALTVSEIAAAGLPALFVPFQHKDRQQYWNALPLEKAGAAKIIEQPQLSVDAVANTLAGWSRETLLTMAERARAASIPDATERVANEVSRVARALEHHHHHH	soluble
MMSSQAWTDVENDLIVADYFAMLAEDVAGHPYNKAEHRRQLLPRLNDRSDGSVEFKHQNISAVLKGLGEVWITGYKPAFNFQTSLVDAVARWLVINPGWTHRTLSSRPVDGMAEAAQLWVGPAPTLTNQPSPDELEQMLHIAKKFDVAARDGRNRALGKAGEERVLKHERNTLTAAGREDLAQQIRWVSEEEGDGAGYDIASFDADGRQRLIEVKTTNGWERTPFHISRNELAVADERREEWCLFRLWNFARTPKAFELRPPLDAYVSLTATSFQASIHLEHHHHHH	not soluble
MMTNPKVIILGGRFGGLQTAYELKRYLKGKIDIKLIERNRYIYFRPALPHVAIGLENPDDLRIDISEALSAKGIEYIQGTVTRIDPAKNTVEYNKEGAGPSKEKYDYLVIALGSHLATELITGFEKFGSSVCEADLALSMWNKLNAFKGGNITLGSAKFIQDNKNRPTNNPDAYAPLLESACEGPVYEMSIMLYDYFKAKGMLDKVKMTVYSPGKYLSDLSETNRATVAAMYKGMDIDIVDNFVLKEVTEKEVISEDGKRLPSDLSFILPPYMGQQMVKDAGLGDEAGFVLTDTNMKSVKYDNVYAVGDINALIVPKMAALAVKSARIAAANIANNLGNKVPIEVYDPKIVCIADDPYGKYAVAIVDSTAYGGNISEAVPSAANHLKKSLFTRYFLWSKGDLAMDKYLTSWLEHHHHHH	not soluble
MMTQQELEKYLWGAATTLRGTIDAGDYKQYIFPLMFFKRICDVYDEEFENALAESDGDLEYAAFAENHHFQVPKGAHWNDVRETTTNIGLALQNAMRAIEKANPDTLEGIFGDASWTNKERLSDAMLTNLIEHYSEQTLNLKNVPDDKLGNAYEYLIKEFADDSGHTAAEFYTNRTVVKLMTMIMAPQPGESVYDPTCGSGGLLLNCALHLKDEGKEYRTLKLYGQEINLLTSAIARMNMFMHGIEEFDIVRGNTLSNPGLLENDELKKFNVILANPPYSIKSWDRKAFESDPYGRNVWGTPPQGCADYAFQQHIQKSLDLGNGRSISLWPHGILFRDAETAMRRKMIEQDQVECVIGLGPNLFYNSPMEACLLITKTNKIESKKDKILFINAVKEVRQDKNIGYLDQVHIDKIFNAYNKFENEDSFAVLVDKQEVLDKKANMAINLYIRPDSLVSSEEACFATAYQEWQQSSGDLKQSMEKLFKELV	not soluble
MMTYDRNRNAITTGSRVMISGTGHTGIIKAIESEGLDAGQIRRGKTVIVEGCEGKFAPVELIRLGMN	not soluble
MMVTFGEPGVYSSYSNPLPSTDTWEDCLEYCLGLSTCVAVYNNNCQMFEIGQISTATSTSETKIAFKFLADNATCPIQEPTSLQGHYFTNTTYQPYTVSYSAPTWTFANSTQLECPTNYALFVRDLGPWCMKVIQHYACCNKTIAATMCNSYGAQLSGLDSTAEYDFMLAGSWPIFKNVTTNKIGSTQYYATGVWVDGARTLACMGNTTYPCNTTQAFSFTDPTLSSPPGGYLWLPGRPDGGDAPADGIVLNLYTTELYGMEDTPSSEPVSGVYCWMGYLCGAVPT	not soluble
MNALTPLSARLERSDGHALVTLARSRGAVRLRDLAQRGSAKAFLPRVEGDVPEVVFLNTSGGLTGGDRLSYRLEVGEGCRATATTQTAERAYAAGAGAARVEVLHEVGRDGWLDWLPQETILFEGAALERETQISLAPGAGCLMVESVVLGRAAMGETLSRLAFRDRRSILRGGKPVVVEPLALDDRALAAAGGAAMLGGARALATLAMVGPGAEDALGPARAALGEAGVEAAASAFDGKLVLRLLAADGWPLRRQVARLLTVLRGRALPRVWQVLEHHHHHH	not soluble
MNASSEFTLQFESHAVRVQVDEAGTPWFNANDICTAVELLNPCAALAQHVGARNVSKRKIIDTIGRTQRANYLNEPGVLTLLIGSTKEAAKRLRRWLISEALPAAAVQKAGQHSVPQHHAPSISTPFQPTEDHTMNAITPFQFESHAVRTVVDDHGEVWFVGKDVADVLGYTNHNKALGDHCKGVPKRYPLQTPGGIQEIRIISEPDMLRLIVSSKLPAAERFERWVTSEVLPTIHKTGNRPALDHSTHSANAITPFQFESKDVRIQLDEASAPWFNANDVCSILEFGNPRQAIESHVDVEDVQKLDATDNLGRTRQTNHINESGLYALIMGSTKPAAKRFKRWVTSEVLPTLRKTGTYSTPGALPTLPGPTQDRIAALLLIGQYISTVPGVKPGIAAAATLACIKSNTNLTTEEIRRALPALRDPLCMLNATQLGKQLHCSAKAVNQLLASRGLQFRNERDDWELTEAGRVWGEAIPYSRNGHSSYQILWNPTVVDSLKVAA	soluble
MNDEQQNSNQSENTKKPFFQSLFGRFFQGELKNREELVEVIRDSEQNDLIDQNTREMIEGVMEIAELRVRDIMIPRSQIIFIEDQQDLNTCLNTIIESAHSRFPVIADADDRDNIVGILHAKDLLKFLREDAEVFDLSSLLRPVVIVPESKRVDRMLKDFRSERFHMAIVVDEFGAVSGLVTIEDILEQIVGDIEDEFDEEEIADIRQLSRHTYAVRALTDIDDFNAQFNTDFDDEEVDTIGGLIMQTFGYLPKRGEEIILKNLQFKVTSADSRRLIQLRVTVPDEHLAEMNNVDEKSELEHHHHHH	not soluble
MNDGDETLTAGAQGRQFGPLGTALVIIPTYNEAENIKSIVGRVRASVPEAHVLVADDNSPDGTGKLADELAVEDDQVHVLHRKGKEGLGAAYLAGFRWGLDNGYGVLVEMDADGSHRPEELPRLLTALKGADLVLGSRWVPGGRVVNWPKSREFISRGGSLYSRLALDLPQRDITGGYRAFRRETLEGLGLDEVASQGYCFQVDLARRTVKAGYHVVEVPITFVEREFGDSKMSRDILVEALWRVTTWGVGERVGRITGRGPKSSLEHHHHHH	not soluble
MNDGDVSRQIQQMVRFIRQEAEEKANEISVSAEEEFNIEKLQLVEAEKKKIRQDYEKKEKQADVRKKIDYSMQLNASRIKVLQAQDDIVNAMKDQAAKDLLNVSRDEYAYKQLLKDLIVQCLLRLKEPSVLLRCREEDLGLVEAVLDDAKEEYAGKAKVHAPEVAVDTKIFLPPPPKSNDPHGLHCSGGVVLASRDGKIVCENTLDARLDVAFRMKLPVIRKSLFGQVTA	soluble
